In PMC10869273:

Assays:
Experiment in all cases: BLI
H1 Caledonia = molecular target: H1 Caledonia
H2 Japan = molecular target: H2 Japan
H3 Panama = molecular target: H3 Panama
H3 Victoria = molecular target: H3 Victoria
H5 Vietnam = molecular target: H5 Vietnam
[1] = molecular target: HA H1 Solomon (A/Solomon Islands/3/2006(H1N1)); details: monovalent Fab

MEDI8852 VH E65P Fab
Kd (H1 Caledonia): < 1 pM
Kd (H2 Japan): < 1 pM
Kd (H3 Panama): < 1 pM
Kd (H3 Victoria): < 1 pM
Kd (H5 Vietnam): < 1 pM

MEDI8852 unmutated common ancestor (UCA) Fab (wild-type) VH:K58S; VH:V65P; VL:G95P
Kd [1]: 50000 pM
